Experimental data from paper PMC7494870, “Arrangement and symmetry of the fungal E3BP-containing core of the pyruvate dehydrogenase complex” (Nature Communications, 2020).

What was measured:
[1] = molecular target: T1, Neurospora crassa protein X (endogenous, in the native PDC) (N. crassa (endogenous in N. crassa …, UniProt Q7RWS2 1-426)); experiment: cryo-EM structure; single-particle cryo-EM of intact native PDC purified from N. crassa mitochondria; icosahedral and tetrahedral (classes X, Y) reconstructions; conditions: both partners purified
T1 construct: Protein X (PX) of the pyruvate dehydrogenase complex, Neurospora crassa, uniprot Q7RWS2, locus NCU00050; Forms trimers inside the E2 core; also called PX; X-component; source: endogenous, PDC purified from N. crassa mitochondria (DDM lysis, sucrose cushion, sucrose gradient, SEC)
T1 sequence (looked up): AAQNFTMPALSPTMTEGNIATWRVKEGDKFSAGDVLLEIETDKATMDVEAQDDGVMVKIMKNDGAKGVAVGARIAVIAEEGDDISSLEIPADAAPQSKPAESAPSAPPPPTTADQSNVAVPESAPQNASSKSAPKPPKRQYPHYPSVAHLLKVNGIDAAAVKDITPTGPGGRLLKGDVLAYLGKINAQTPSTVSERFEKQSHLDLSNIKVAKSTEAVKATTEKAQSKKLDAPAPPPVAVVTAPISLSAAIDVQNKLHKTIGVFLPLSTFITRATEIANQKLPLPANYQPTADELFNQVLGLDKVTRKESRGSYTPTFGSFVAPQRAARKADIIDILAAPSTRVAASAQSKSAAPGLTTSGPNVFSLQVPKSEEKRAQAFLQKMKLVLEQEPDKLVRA

[2] = molecular target: the molecule itself; experiment: as above
[3] = molecular target: the molecule itself; experiment: cryo-EM structure; single-particle cryo-EM of the reconstituted tE2 + PX30 recombinant subcomplex, icosahedral symmetry
[4] = molecular target: T2, N. crassa PX (30-426), His-tagged, separately expressed (N. crassa, UniProt Q7RWS2 30-426); experiment: pull-down; separately expressed tE2 and His-tagged PX variants, brief incubation, co-purified by Ni-NTA affinity
T2 construct: Protein X (PX), Neurospora crassa, residues 30-426 of uniprot Q7RWS2; His6 tag is cleavable with TEV; protein was either cleaved with TEV or eluted with imidazole depending on the purpose; also called full-length PX; source: E. coli Rosetta2 (DE3), pRSET vector, single expression, Ni-NTA
T2 sequence (looked up): T1 sequence (looked up)

[5] = molecular target: the molecule itself; experiment: cryo-EM structure; single-particle cryo-EM of the co-expressed tE2 + PX261 subcomplex, icosahedral symmetry

B1: Neurospora crassa pyruvate dehydrogenase complex E2 (endogenous, core of the native PDC) (enzyme, UniProt P20285 29-458, looked up)
chain: ASYPPHTVVKMPALSPTMTSGGIGAWQKKPGDKIEPGEVLVEIETDKAQMDFEFQEEGVLAKILKDSGEKDVAVGNPIAILVEEGTDVNAFKDFTLKDAGGETSPAVPKDEPKNESTASAPTPAPTPAPEPENTSFTGRFQTALEREPNALPAAKRLAREKGIDLRNVKGSGPGGKITEEDVKKALASAPAAGAAAAAYTDVPISGMRKTIAARLKESVTENPHFFVSTNLSVSKLLKLRQALNSSADGRYKLSVNDFLIKAMGIASKRVPTVNSSWRDGVIRQFETVDVSVAVATPNGLITPIVKGVEGKGLESISAAVKELAKKARDGKLKPEEYQGGSISISNMGMNPAVQSFTAIINPPQAAILAVGAPQKVAVPVENEDGTTGVSWDEQIIVTASFDHKVVDGAVGAEWIRELKKVIENPLELLL
notes: E2 of the pyruvate dehydrogenase complex, Neurospora crassa, uniprot P20285; residues 232-458 identified in the native reconstruction; Icosahedral core of 60 E2 in the native complex; only the core-forming domain is ordered in the map; also called E2 core; PDC core; source: endogenous, PDC purified from N. crassa mitochondria (DDM lysis, sucrose cushion, sucrose gradient, SEC); copies: 60
stoichiometry N [1]: ≤ 12 PX monomers per E2 core | stoichiometry N [2]: 60

B2: N. crassa E2 core-forming domain, tE2 (225-458), separately expressed (domain or fragment, UniProt P20285 225-458, looked up)
chain: AAYTDVPISGMRKTIAARLKESVTENPHFFVSTNLSVSKLLKLRQALNSSADGRYKLSVNDFLIKAMGIASKRVPTVNSSWRDGVIRQFETVDVSVAVATPNGLITPIVKGVEGKGLESISAAVKELAKKARDGKLKPEEYQGGSISISNMGMNPAVQSFTAIINPPQAAILAVGAPQKVAVPVENEDGTTGVSWDEQIIVTASFDHKVVDGAVGAEWIRELKKVIENPLELLL
notes: E2 core-forming domain, Neurospora crassa, residues 225-458 of uniprot P20285; His6 tag is cleavable with thrombin; PDB 6ZLO covers residues 227-458; source: E. coli Rosetta2 (DE3), pRSET vector, single expression
binding result [3]: binds | binding result [4]: binds

B3: N. crassa E2 core-forming domain, tE2 (225-458), untagged, co-expressed with PX constructs (domain or fragment, UniProt P20285 225-458, looked up)
chain: B2 chain
notes: E2 core-forming domain, Neurospora crassa, residues 225-458 of uniprot P20285; also called untagged E2 core-forming domain; source: E. coli Rosetta2 (DE3), petDuet dual-expression vector, co-expressed with His-tagged PX constructs, in lysate; co-purified on Ni-NTA
binding result [5]: binds
